Data as given in patent publication US20180009889A1 (Novartis, published 2018).

Legend:
EGF32 NRR (cyno) [1] = target: T1, EGF32 NRR (cyno) (cynomolgus monkey); assay: ELISA: IgG titrated on directly coated recombinant antigen
T1 construct: recombinant, C-terminal six histidine tag

EGF32 NRR (mouse) [2] = target: T2, EGF32 NRR (mouse) (mouse, UniProt Q61982); assay: as above
T2 construct: recombinant, C-terminal six histidine tag

EGF32 NRR (human) [3] = assay: as above
EGF32 NRR (cyno) [4] = target: T1, EGF32 NRR (cyno); assay: Biacore (SPR); set-up not stated on the sheet
EGF32 NRR (mouse) [5] = target: T2, EGF32 NRR (mouse); assay: Biacore (SPR); set-up not stated on the sheet
EGF32 NRR (human) [6] = assay: Biacore (SPR); set-up not stated on the sheet
[7] = target: T3, Human Notch 3 (wild type) (human, UniProt Q9UM47 40-2321); assay: FACS on U2OS_N3 cells, with U2OS_parental cells as control
T3 construct: also called Notch 3 receptor

Human Notch3-Gal4-VP16 [8] = target: Human Notch3-Gal4-VP16 (human); assay: cell-based or functional assay
EGF32 NRR (cyno) [9] = target: T1, EGF32 NRR (cyno); assay: ELISA: IgG titrated on directly coated recombinant antigen; remark: listed apart in the source
[10] = target: T4, Human Notch3 Negative Regulatory Region (NRR), residues 1378 to 1640 of human Notch3, with C-terminal His tag (human, UniProt Q9UM47 1378-1640); assay: HDx-MS without Ca2+, IgG with Notch 3 NRR
T4 construct: also called Notch3 NRR; Notch 3 NRR
Protocol: Deuterium exchange was quenched by diluting the exchanged solution 1:1 with (6 M Urea and 1 M TCEP pH=2.5) for 5 minutes at 2° C. After quenching, the sample was injected onto the Waters UPLC system where it was digested using an immobilized pepsin column that was maintained at 12° C. After digestion, peptides were retained on a Waters UPLC HSS T3 2.1×5 mm pre-column.

Human Notch3-Gal4-VP16 [11] = target: Human Notch3-Gal4-VP16 (human); assay: cell-based or functional assay; remark: listed apart in the source
cyno LBD [12] = target: T5, cyno LBD; assay: ELISA: IgG titrated on directly coated recombinant antigen
T5 construct: also called N3_EGF4-11_Fc cyno

cyno LBD [13] = target: T5, cyno LBD; assay: Biacore (SPR); set-up not stated on the sheet
Human Notch3-Gal4-VP16 [14] = target: Human Notch3-Gal4-VP16 (human); assay: cell-based or functional assay; remark: listed apart in the source
cyno LBD [15] = target: T5, cyno LBD; assay: ELISA: IgG titrated on directly coated recombinant antigen; remark: listed apart in the source
[16] = target: T3, Human Notch 3 (wild type); assay: FACS on U2OS_N3 cells (U2OS over-expressing human Notch3)

Row | Binder | EC50 (EGF32 NRR (cyno) [1]) | Kd (EGF32 NRR (cyno) [4]) | Kd (EGF32 NRR (mouse) [5]) | % inhibition, Delta 1 co-culture Notch3 reporter gene assay (Human Notch3-Gal4-VP16 [8]) | % inhibition, Jagged1 co-culture Notch3 reporter gene assay (Human Notch3-Gal4-VP16 [8]) | IC50, Delta 1 co-culture Notch3 reporter gene assay (Human Notch3-Gal4-VP16 [8]) | IC50, Jagged1 co-culture Notch3 reporter gene assay (Human Notch3-Gal4-VP16 [8]) | further results
1 | 12215 (antibody, human IgG1, kappa, V domains shown, also called MOR 12215) VH: QVQLVESGGGLVKPGGSLRLSCAASGFTFSTYVMHWVRQAPGKGLEWVGRIRSNTYGGITDYAAPVKGRFTISRDDSKNTLYLQMNSLKTEDTAVYYCARAEARYRDVWGQGTLVTVSS VL: DIQMTQSPSSLSASVGDRVTITCRASQSISSHLNWYQQKPGKAPKLLIYAASNLQSGVPSRFSGSGSGTDFTLTISSLQPEDFATYYCQQDYHTPFTFGQGTKVEIKR | 0.6 nM | 2.7 nM | 1 nM | -1% | -5% |  |  | EC50 (EGF32 NRR (mouse) [2]): 2.2 nM; EC50 (EGF32 NRR (human) [3]): 0.9 nM; Kd (EGF32 NRR (human) [6]): 0.9 nM; EC50 (read off the curve) [7]: ~0.5 nM
2 | 12981 (antibody, human IgG1, kappa, V domains shown, also called MOR 12981) VH: QVQLVQSGAEVKKPGSSVKVSCKASGGTFRTYAMHWVRQAPGQGLEWMGGIIPIFGIANYAQKFQGRVTITADESTSTAYMELSSLRSEDTAVYYCARDDYSTYAFAYWGQGTLVTVSS VL: DIQMTQSPSSLSASVGDRVTITCRASQSIASYLAWYQQKPGKAPKLLIYDASNLQSGVPSRFSGSGSGTDFTLTISSLQPEDFATYYCQQAYKTPYTFGQGTKVEIKR | 0.4 nM | 19 nM |  | 16% | 56% | 22 nM | 0.2 nM | EC50 (read off the curve) (EGF32 NRR (cyno) [9]): ~0.6 nM
3 | 20358 (antibody, human IgG1, kappa, V domains shown) VH: QVQLVQSGAEVKKPGSSVKVSCKASGGTFRTYAMHWVRQAPGQGLEWMGGIVPYHGITDYAQKFQGRVTITADESTSTAYMELSSLRSEDTAVYYCARDDYSTYAFAYWGQGTLVTVSS VL: DIQMTQSPSSLSASVGDRVTITCRASQSIASYLAWYQQKPGKAPKLLIYDASNLQSGVPSRFSGSGSGTDFTLTISSLQPEDFATYYCQQAYKTPYTFGQGTKVEIKR | 0.5 nM | 2.7 nM | 70 nM |  |  |  |  | 
4 | 20337 (antibody, human IgG1, kappa, V domains shown) VH: QVQLVESGGGLVKPGGSLRLSCAASGFTFSTYVMHWVRQAPGKGLEWVGRIRANAYGGAADYAAPVKGRFTISRDDSKNTLYLQMNSLKTEDTAVYYCARAEARYRDVWGQGTLVTVSS VL: DIQMTQSPSSLSASVGDRVTITCRASQSISSHLNWYQQKPGKAPKLLIYAASNLQSGVPSRFSGSGSGTDFTLTISSLQPEDFATYYCQQDYHTPFTFGQGTKVEIKR | 0.6 nM | 0.4 nM | 4.4 nM | 18% | 60% | 6.4 nM | 4.6 nM | EC50 (EGF32 NRR (mouse) [2]): 0.7 nM; EC50 (EGF32 NRR (human) [3]): 0.8 nM; Kd (EGF32 NRR (human) [6]): 0.5 nM; binding result [10]: binds
5 | 12229 (antibody, human IgG1, lambda, V domains shown) VH: QVQLVESGGGLVKPGGSLRLSCAASGFTFSSYTMNWVRQAPGKGLEWVGRIKTKTNGGTTDYAAPVKGRFTISRDDSKNTLYLQMNSLKTEDTAVYYCARERSRAGSIFDPWGQGTLVTVSS VL: DIVLTQPPSVSGAPGQRVTISCSGSSSNIGFNYVSWYQQLPGTAPKLLIYYNNQRPSGVPDRFSGSKSGTSASLAITGLQAEDEADYYCSTWTGTSESHVFGGGTKLTVLG |  |  |  | 85% | 77% | 5.5 nM | 0.7 nM | IC50 (read off the curve), Delta1 co-culture reporter gene assay (Human Notch3-Gal4-VP16 [11]): ~5 nM; EC50 (cyno LBD [12]): 0.5 nM; Kd (cyno LBD [13]): 24 nM; IC50 (read off the curve), Jagged1 co-culture reporter gene assay (Human Notch3-Gal4-VP16 [14]): ~0.8 nM; EC50 (read off the curve) (cyno LBD [15]): ~0.3 nM; binding result [16]: binds
6 | 20345 (antibody, human IgG1, kappa, V domains shown) VH: QVQLVQSGAEVKKPGSSVKVSCKASGGTFSSYTISWVRQAPGQGLEWMGWIKPKLGMAHYAQKFQGRVTITADESTSTAYMELSSLRSEDTAVYYCARGSFWFGYWGQGTLVTVSS VL: DIQMTQSPSSLSASVGDRVTITCRASQGINNYLNWYQQKPGKAPKLLIYDASKLQSGVPSRFSGSGSGTDFTLTISSLQPEDFATYYCQQYLQYPMTFGQGTKVEIKR | 0.6 nM | 0.7 nM |  | 19% | -88% | 0.3 nM | 0.4 nM | 
7 | 20351 (antibody, human IgG1, kappa, V domains shown) VH: QVQLVQSGAEVKKPGSSVKVSCKASGGTFSSYTISWVRQAPGQGLEWMGWIKPRYGAAMYAQKFQGRVTITADESTSTAYMELSSLRSEDTAVYYCARGSFWFGYWGQGTLVTVSS VL: DIQMTQSPSSLSASVGDRVTITCRASQGINNYLNWYQQKPGKAPKLLIYDASKLQSGVPSRFSGSGSGTDFTLTISSLQPEDFATYYCQQYLQYPMTFGQGTKVEIKR | 0.8 nM | 1.2 nM |  | 30% | -50% | 1.4 nM | 0.8 nM | 
8 | 12225 (antibody, human IgG1, kappa, V domains shown, also called MOR 12225) VH: QVQLVQSGAEVKKPGSSVKVSCKASGGTFSSYTISWVRQAPGQGLEWMGWIKPAFGTANYAQKFQGRVTITADESTSTAYMELSSLRSEDTAVYYCARGSFWFGYWGQGTLVTVSS VL: DIQMTQSPSSLSASVGDRVTITCRASQGINNYLNWYQQKPGKAPKLLIYDASKLQSGVPSRFSGSGSGTDFTLTISSLQPEDFATYYCQQYLQYPMTFGQGTKVEIKR | 0.9 nM | 2.7 nM |  | -8% | -165% |  | 5.8 nM | 
9 | 20350 (antibody, human IgG1, kappa, V domains shown) VH: QVQLVQSGAEVKKPGSSVKVSCKASGGTFSSYTISWVRQAPGQGLEWMGWIKPRWGAAHYAQKFQGRVTITADESTSTAYMELSSLRSEDTAVYYCARGSFWFGYWGQGTLVTVSS VL: DIQMTQSPSSLSASVGDRVTITCRASQGINNYLNWYQQKPGKAPKLLIYDASKLQSGVPSRFSGSGSGTDFTLTISSLQPEDFATYYCQQYLQYPMTFGQGTKVEIKR | 1.4 nM | 0.3 nM |  |  |  |  |  | 
